B1: 30-bp duplex with 2-nt gap (dsDNA)
DNA 1: CCAACTTCCCTAACCCAGCTGCGATCCGTA
DNA 2: TACGGATCGCAGC
DNA 3: GGTTAGGGAAGTTGG
modifications: 2-nt gap in bottom strand

How the values were obtained:
[1] = target: HUβ(K86ac) K86ac (Escherichia coli BL21(DE3)) (UniProt P0ACF4); experiment: EMSA; settings: 4 µM HU dimer, 1 µM DNA; versus HUβ2; p < 0.05; 2-nt gap in bottom strand; 30 mM Tris pH 7.5, 100 mM NaCl, 0.02% Tween20, 0.5 mg/ml BSA; 30-bp DNA 1 µM, 18°C 10 min, 10% PAGE in TBE; long DNA 250 ng in 15 µL, 37°C 1 h, 0.5% agarose in …
Sequence of HUβ(K86ac) K86ac (Escherichia coli BL21(DE3)) (P0ACF4 whole entry): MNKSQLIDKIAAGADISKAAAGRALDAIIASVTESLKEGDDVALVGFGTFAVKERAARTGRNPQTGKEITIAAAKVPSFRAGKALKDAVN

HUα;HUβ = HUα;HUβ (Escherichia coli BL21(DE3);Escherichia …, UniProt P0ACF0;P0ACF4 1-90;1-90, |); experiment: EMSA; heterodimer; higher affinity than homodimer; 30 mM Tris pH 7.5, 100 mM NaCl, 0.02% Tween20, 0.5 mg/ml BSA; 30-bp DNA 1 µM, 18°C 10 min, 10% PAGE in TBE; long DNA 250 ng in 15 µL, 37°C 1 h, 0.5% agarose in; settings: protein: recombinant;recombinant; tags: C-terminal 6xHis;C-terminal 6xHis; copies: 1;1; three strands; 2-nt gap in bottom strand between S16 and S17; blunt outer ends
Sequence of HUα;HUβ (P0ACF0 whole entry, chain 1 of 2): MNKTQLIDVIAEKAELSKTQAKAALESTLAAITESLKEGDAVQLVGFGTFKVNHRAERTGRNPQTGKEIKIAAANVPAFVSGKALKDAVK
Sequence of HUα;HUβ (P0ACF4 whole entry, chain 2 of 2): as the sequence (P0ACF4 whole entry) above

| Molecule | binding signal (fold free DNA) [1] | binding result (HUα;HUβ) |
| --- | --- | --- |
| CCAACTTCCCTAACCCAGCTGCGATCCGTA / TACGGATCGCAGC / GGTTAGGGAAGTTGG [30-bp duplex with 2-nt gap] | > 4 | – |
| B1 | – | binds |

— PMC8854993, “Acetylation at Lysine 86 of Escherichia coli HUβ Modulates the DNA-Binding Capability of the Protein” (Frontiers in Microbiology, 2021)
